Test results reported in patent US20150232562A1 (Ablynx, published 2015).
Changes are numbered by the printed parent chain.

B1: 47D5 (VHH)
VHH: KVQLVESGGGLVQPGGSLRLSCAASGSIFGFNDMAWYRQAPGKQRELVALISRVGVTSSADSVKGRFTISRVNAKDTVYLQMNSLKPEDTAVYYCYMDQRLDGSTLAYWGQGTQVTVSS
notes: C-term myc-His6 tag; also called 47A8; 47A11
B2: 2A1 (VHH)
VHH: EVQLVESGGGLVQAGGSLRLSCVASKITFRRYIMDWYRQAPGKQRELVASINSDGSTGYTDSVKGRFTISRDNTKNTLDLQMNSLKPEDTAVYYCHGRWLEIGAEYWGQGTQVTVSS
notes: C-term myc-His6 tag
B3: 2C5 (VHH)
VHH: EVQLVESGGGLVQAGGSLNLSCVASGIPFSTRTMAWYRQTPGKSRDWVATIRSGTPVYADSVKGRFTVSRDNAKNTLYLRMNSLKSEDSATYTCRAVNADIWGQGTQVTVSS
notes: C-term myc-His6 tag
B4: 2G4 (VHH)
VHH: EVQLVESGGGLVQAGGSLRLSCAASGNIFSHNAMGWYRQAPGKQRELVTYITINGIANYVDSVKGRFTISRDNTKNTMYLQMVSLKPEDTAVYYCNVGGREYSGVYYYREYWGQGTQVTVSS
notes: C-term myc-His6 tag
B5: 2H1 (VHH)
VHH: EVQLVESGGGLVQPGGSLRLSCVASGFSLDDYGMTWVRQAPGKGLEWVSSINWSGTHTDYADSVRGRFVISRDNAKNTLFLQMNSLSPEDTAVYYCNQGWKIIPTDRRGHGTQVTVSS
notes: C-term myc-His6 tag
B6: 27H5-35GS-2D3 (bispecific antibody)
chain: EVQLVESGGGLVQAGGSLRLSCAASGFTFDDYGIGWFRQASGKEREGVSCITSSDGSTYYADSVKGRFTISSDNAKNTVYLQMNSLKPEDTAVYYCAALPFVCPSGSYSDYGDEYDYWGQGTQVTVSSGGGGSGGGGSGGGGSGGGGSGGGGSGGGGSGGGGSEVQLVESGGSLVQPGGSLRLSCAASGFTFDDYAMSWVRQVPGKGLEWVSSINWSGTHTDYADSVKGRFTISRNNANNTLYLQMNSLKSEDTAVYYCAKNWRDAGTTWFEKSGSAGQGTQVTVSS
notes: biparatopic Nanobody; C-term myc-His6 tag
B7: 27B7-35GS-2D3 (bispecific antibody)
chain: EVQLVESGGGLVQPGGSLRLSCAASGFTFSSYAMSWVRQAPGKGLEWVSAISSGGGSITTYADSVKGRFTISRDNAKNTLYLQMSSLKPEDTALYYCAKARSSSSYYDFGSWGQGTQVTVSSGGGGSGGGGSGGGGSGGGGSGGGGSGGGGSGGGGSEVQLVESGGSLVQPGGSLRLSCAASGFTFDDYAMSWVRQVPGKGLEWVSSINWSGTHTDYADSVKGRFTISRNNANNTLYLQMNSLKSEDTAVYYCAKNWRDAGTTWFEKSGSAGQGTQVTVSS
notes: biparatopic Nanobody; C-term myc-His6 tag; also called 2B7-35GS-2D3
B8: 27A3-35GS-2D3 (bispecific antibody)
chain: EVQLVESGGGLVQAGGSLSLSCVASGRFFSTRVMAWYRQTPGKQREFVASMRGSGSTNYADSVRGRFAISRDNAKNTVYLQMNTLKPEDTAVYYCRDINEDQWGQGTQVTVSSGGGGSGGGGSGGGGSGGGGSGGGGSGGGGSGGGGSEVQLVESGGSLVQPGGSLRLSCAASGFTFDDYAMSWVRQVPGKGLEWVSSINWSGTHTDYADSVKGRFTISRNNANNTLYLQMNSLKSEDTAVYYCAKNWRDAGTTWFEKSGSAGQGTQVTVSS
notes: as for B6
B9: 2D3 (VHH)
VHH: EVQLVESGGSLVQPGGSLRLSCAASGFTFDDYAMSWVRQVPGKGLEWVSSINWSGTHTDYADSVKGRFTISRNNANNTLYLQMNSLKSEDTAVYYCAKNWRDAGTTWFEKSGSAGQGTQVTVSS
notes: C-term myc-His6 tag; also called NB-2D3; Nb-2D3
B10: 27E7-35GS-2D3 (bispecific antibody)
chain: EVQLVESGGGLVQAGGSLRLSCAASGITFRRYDMGWYRQFPGKERELVATILSEGDTNYVDPVKGRFTISRDNAKNTVYLQMNDLKPEDTAVYYCNGVWRAIGRTYWGQGTQVTVSSGGGGSGGGGSGGGGSGGGGSGGGGSGGGGSGGGGSEVQLVESGGSLVQPGGSLRLSCAASGFTFDDYAMSWVRQVPGKGLEWVSSINWSGTHTDYADSVKGRFTISRNNANNTLYLQMNSLKSEDTAVYYCAKNWRDAGTTWFEKSGSAGQGTQVTVSS
notes: as for B6
B11: 27C3-35GS-2D3 (bispecific antibody)
chain: EVQLVESGGGLVQPGGSLRLSCAASGFTFDDYATSWVRQAPGKGPEWVSAINSGGGSTYYADSVKGRFTISRDNAKNTLYLQMNSLKPEDTAVYYCARPRGSSLYLLEYDYWGQGTQVTVSSGGGGSGGGGSGGGGSGGGGSGGGGSGGGGSGGGGSEVQLVESGGSLVQPGGSLRLSCAASGFTFDDYAMSWVRQVPGKGLEWVSSINWSGTHTDYADSVKGRFTISRNNANNTLYLQMNSLKSEDTAVYYCAKNWRDAGTTWFEKSGSAGQGTQVTVSS
notes: as for B6
B12: 2D3-35GS-2D3 (VHH)
chain: EVQLVESGGSLVQPGGSLRLSCAASGFTFDDYAMSWVRQVPGKGLEWVSSINWSGTHTDYADSVKGRFTISRNNANNTLYLQMNSLKSEDTAVYYCAKNWRDAGTTWFEKSGSAGQGTQVTVSSGGGGSGGGGSGGGGSGGGGSGGGGSGGGGSGGGGSEVQLVESGGSLVQPGGSLRLSCAASGFTFDDYAMSWVRQVPGKGLEWVSSINWSGTHTDYADSVKGRFTISRNNANNTLYLQMNSLKSEDTAVYYCAKNWRDAGTTWFEKSGSAGQGTQVTVSS
notes: bivalent 2D3, 35GS linker; C-term myc-His6 tag
B13: DUMMY-35GS-2D3 (bispecific antibody)
chain: EVQLVESGGGLVQAGGSLRLSCAASGRTFRSYPMGWFRQAPGKEREFVASITGSGGSTYYADSVKGRFTISRDNAKNTVYLQMNSLRPEDTAVYSCAAYIRPDTYLSRDYRKYDYWGQGTQVTVSSGGGGSGGGGSGGGGSGGGGSGGGGSGGGGSGGGGSEVQLVESGGSLVQPGGSLRLSCAASGFTFDDYAMSWVRQVPGKGLEWVSSINWSGTHTDYADSVKGRFTISRNNANNTLYLQMNSLKSEDTAVYYCAKNWRDAGTTWFEKSGSAGQGTQVTVSS
notes: C-term myc-His6 tag; also called dummy-2D3; Dummy-2D3
B14: 27D1-35GS-2D3 (bispecific antibody)
chain: EVQLVESGGGLVQPGGSLRLSCVASGFSLDDYGMTWVRQAPGKGLEWVSSINWSGTHTDYADSVKGRFTISRDNAKNTLFLQMNSLTPEDTAVYYCNQGWKILPAERRGHGTQVTVSSGGGGSGGGGSGGGGSGGGGSGGGGSGGGGSGGGGSEVQLVESGGSLVQPGGSLRLSCAASGFTFDDYAMSWVRQVPGKGLEWVSSINWSGTHTDYADSVKGRFTISRNNANNTLYLQMNSLKSEDTAVYYCAKNWRDAGTTWFEKSGSAGQGTQVTVSS
notes: as for B6
B15: 2A4 (VHH)
VHH: EVQLVESGGGLVQPGGSLRLSCAASGFIFDDYAMSWVRQAPGKGLEWVSAINWSGSHRNYADSVKGRFTISRDNAKKTVYLQMNSLQSEDTAVYYCGTGWQSTTKNQGYWGQGTQVTVSS
notes: C-term myc-His6 tag
B16: 2A5 (VHH)
VHH: B9 VHH with S10G, A24T, S35T, V40A, A61T, R101G
notes: C-term myc-His6 tag
B17: 2C3 (VHH)
VHH: B5 VHH with R65K, V69T, S87R, P88S, I103V, R108T
notes: C-term myc-His6 tag
B18: DUMMY-35GS-47D5 (bispecific antibody)
chain: EVQLVESGGGLVQAGGSLRLSCAASGRTFRSYPMGWFRQAPGKEREFVASITGSGGSTYYADSVKGRFTISRDNAKNTVYLQMNSLRPEDTAVYSCAAYIRPDTYLSRDYRKYDYWGQGTQVTVSSGGGGSGGGGSGGGGSGGGGSGGGGSGGGGSGGGGSEVQLVESGGGLVQPGGSLRLSCAASGSIFGFNDMAWYRQAPGKQRELVALISRVGVTSSADSVKGRFTISRVNAKDTVYLQMNSLKPEDTAVYYCYMDQRLDGSTLAYWGQGTQVTVSS
notes: control: dummy Nanobody fused N-terminally to 47D5; C-term myc-His6 tag; also called Dummy-47D5

target: T1, extracellular domain of HER2 (HER2-ECD), Flag- and polyhistidine-tagged (human, UniProt P04626 23-652); assay: SPR, 1000 nM HER2-ECD over immobilised Nanobody; row label prints 5F7, table title, text and FIG. 19 say 47D5
T1 construct: extracellular domain; made in HEK293T cells, purified by IMAC and SEC; also called ErbB2 ECD; not shown: N-terminal Flag tag after the Ig-kappa leader; C-terminal polyhistidine tag

koff [s⁻¹]	Binder
0.00131	B1

target: T2, Epidermal Growth Factor Receptor 2 (HER2) (human, UniProt P04626 23-1255); assay: flow cytometry on SKBR3 cells, periplasmic extract
T2 construct: whole, on cells; the cell line is named under assay; also called ErbB-2; ERBB2

binding result	Binder
binds	B2
binds	B3
binds	B4

target: T1, extracellular domain of HER2 …; assay: SPR, 100 nM HER2-ECD over immobilised Nanobody; row label prints 5F7, table title, text and FIG. 19 say 47D5

koff [s⁻¹]	Binder
0.00256	B1

target: T2, Epidermal Growth Factor Receptor 2 …; assay: FMAT competition on SKBR3 cells, periplasmic extract

% blocking of Herceptin binding [%]	Binder
> 90	B5

target: T3, recombinant human ErbB2/Fc chimera (human, UniProt P04626 23-652); assay: SPR (Biacore 3000), purified Nanobody over immobilised rhErbB2-Fc
T3 construct: bought from R&D Systems; also called rhErbB2-Fc; rhErb2-Fc; Fc part of the bought chimera not given; not described

koff [s⁻¹]	Binder
~0.001	B6
~0.001	B7
~0.0001	B8
~0.001	B9
~0.0001	B10
~0.001	B11
~0.0001	B12
~0.001	B13
~0.0001	B14

target: T1, extracellular domain of HER2 …; assay: SPR, 1000 nM HER2-ECD over immobilised Nanobody (about 90 RU)

koff [s⁻¹]	Binder
0.00151	B9

target: T3, recombinant human ErbB2/Fc chimera; assay: ELISA, coated ErbB2/Fc

binding result	Binder
binds	B2
binds	B3
binds	B4

target: T2, Epidermal Growth Factor Receptor 2 …; assay: cell-based or functional assay

inhibition of SKBR3 cell proliferation ([3H]-thymidine), 50 nM Nanobody [%]	Binder
~30	B15
~18	B16
~30	B9
~30	B17

target: T3, recombinant human ErbB2/Fc chimera; assay: SPR (Biacore T100), Nanobody over immobilised rhErbB2-Fc

Kd [nM]	koff [s⁻¹]	kon [M⁻¹ s⁻¹]	Binder
1.09	0.00148	1.36e+06	B9
2.23	0.000862	386000	B1
3.21	0.000869	271000	B18
1.77	0.00113	1.16e+06	B13

target: T1, extracellular domain of HER2 …; assay: SPR, 100 nM HER2-ECD over immobilised Nanobody (about 90 RU)

koff [s⁻¹]	Binder
0.0021	B9

target: T3, recombinant human ErbB2/Fc chimera; assay: SPR (Biacore 3000), periplasmic extract over immobilised rhErbB2-Fc

koff [s⁻¹]	Binder
0.00205	B15
0.00142	B16
0.00111	B17
0.00109	B5
